The target of the assay is soluble form of human TNFα (aa 77–233), wild-type (human). The experiment in a line: crystal structure; purified TNFα and certolizumab Fab mixed in a 1:1 molar ratio, complex isolated by size exclusion chromatography (20 mM Tris pH 8.0, 300 mM NaCl); hanging-drop crystals at 20 °C; 2.89 Å, three copies in the asymmetric unit. A general note: In gel filtration, larger molecules generally elute earlier.

In the case of “soluble form of human TNFα (aa 77–233), wild-type (ligand)”, the stoichiometry N – broadly, the number of molecules, sites or subunits per partner or assembly – amounted to 3.
